# Residue numbers refer to the chain shown, from its start.
# B1: cr520 (nucleic acid)
# guide: GTTTAAGAGCTAAGCTGGAAACAGCATAGCAAGTTTAAATAAGGCTAGTCCGATATCAACTTGCAAAAGTGGCACCGAGTCGGTGCT
# modifications: listed as DNA, chemistry not fully specified
# B2: cr806 (nucleic acid)
# guide: B1 guide with A42G, A53T, C64A
# modifications: listed as DNA, chemistry not fully specified
# B3: cr984 (nucleic acid)
# guide: B1 guide with A53T, C64A, C86G
# modifications: listed as DNA, chemistry not fully specified
# B4: cr105 (nucleic acid)
# guide: B1 guide with T46C, A53T, C64A, A65C
# modifications: listed as DNA, chemistry not fully specified
# B5: cr991 (nucleic acid)
# guide: B1 guide with C64A, A65C
# modifications: listed as DNA, chemistry not fully specified
# B6: cr236 (nucleic acid)
# guide: B1 guide with G24A, A53T, C64A
# modifications: listed as DNA, chemistry not fully specified
# B7: cr396 (nucleic acid)
# guide: B1 guide with A53T, C64A, C75A, G77A, C81T, G83T
# modifications: listed as DNA, chemistry not fully specified
# B8: cr123 (nucleic acid)
# guide: B1 guide with A53T, T61G, C64A
# modifications: listed as DNA, chemistry not fully specified
# B9: cr521 (nucleic acid)
# guide: B1 guide with A47G, A53T, C64A, A78T
# modifications: listed as DNA, chemistry not fully specified
# B10: cr358 (nucleic acid)
# guide: B1 guide with C45T, G48A, A53T, C60G, C64A, G69C, C76T, G82A
# modifications: listed as DNA, chemistry not fully specified
# B11: cr216 (nucleic acid)
# guide: B1 guide with G44A, C50T, A53T, C64A
# modifications: listed as DNA, chemistry not fully specified
# B12: cr759 (nucleic acid)
# guide: B1 guide with A47C, A53T, C64A, A65G
# modifications: listed as DNA, chemistry not fully specified
# B13: cr260 (nucleic acid)
# guide: B1 guide with C64A
# modifications: listed as DNA, chemistry not fully specified
# B14: cr184 (nucleic acid)
# guide: B1 guide with A53G, C64G
# modifications: listed as DNA, chemistry not fully specified
# B15: cr768 (nucleic acid)
# guide: B1 guide with A53T, C64A, T80C
# modifications: listed as DNA, chemistry not fully specified
# B16: cr729 (nucleic acid)
# guide: B1 guide with C22T, A53T, C64A
# modifications: listed as DNA, chemistry not fully specified
# B17: cr414 (nucleic acid)
# guide: B1 guide with A53T, C64A, A74T
# modifications: listed as DNA, chemistry not fully specified
# B18: cr749 (nucleic acid)
# guide: B1 guide with A31G, A53T, T54C, C64A, A78C
# modifications: listed as DNA, chemistry not fully specified
# B19: cr788 (nucleic acid)
# guide: B1 guide with G29T, A53T, C64A
# modifications: listed as DNA, chemistry not fully specified
# B20: cr643 (nucleic acid)
# guide: B1 guide with G44A, C50T, A53T, A59G, C64A, T70C, C75T, G83A
# modifications: listed as DNA, chemistry not fully specified
# B21: cr692 (nucleic acid)
# guide: B1 guide with G17A, A53T, C64A
# modifications: listed as DNA, chemistry not fully specified
# B22: cr286 (nucleic acid)
# guide: B1 guide with T46G, A53T, C64A, A65G
# modifications: listed as DNA, chemistry not fully specified
# B23: cr865 (nucleic acid)
# guide: B1 guide with A53T, A59T, C64A
# modifications: listed as DNA, chemistry not fully specified
# B24: cr488 (nucleic acid)
# guide: B1 guide with A53T, C64A, C73G, G85C
# modifications: listed as DNA, chemistry not fully specified
# B25: cr909 (nucleic acid)
# guide: B1 guide with G29T, A53T, T54G, C64T
# modifications: listed as DNA, chemistry not fully specified
# B26: cr781 (nucleic acid)
# guide: B1 guide with A53T, C64A, G85C
# modifications: listed as DNA, chemistry not fully specified
# B27: cr869 (nucleic acid)
# guide: B1 guide with A53T, C64A, T70A
# modifications: listed as DNA, chemistry not fully specified
# B28: cr891 (nucleic acid)
# guide: B1 guide with G44A, C50T, A53T, C64A, C73T, G85A
# modifications: listed as DNA, chemistry not fully specified
# B29: cr153 (nucleic acid)
# guide: B1 guide with A53T, C60A, T61A, C64A, A68T, G69T
# modifications: listed as DNA, chemistry not fully specified
# B30: cr617 (nucleic acid)
# guide: B1 guide with C45T, G48A, A53T, A59G, T61G, C64A, A68C, T70C
# modifications: listed as DNA, chemistry not fully specified
# Test system: K562 CRISPRi cells
# Test: Constant region variant library pooled growth screen, K562
# Format: cell-based, human
# Details: sgRNA constant region variants; activity relative to the original, un-modified constant region cr995
# Text: We calculated relative activities for each targeting sequence:constant region pair by normalizing its phenotype to that of the targeting sequence paired with the unmodified constant region, identifying 409 constant region variants that on average conferred intermediate activity (0.1-0.9, FIG. 5B). Ten variants selected for individual evaluation also mediated intermediate levels of mRNA knockdown (FIG. 6B). Mapping the activities of constant region variants with single base substitutions onto the structure recapitulated known relationships between constant region structure and function (FIG. 5C).
# The sequences in the library of modified constant regions were derived from the sgRNA (F+E) optimized sequence (23) modified to include a BlpI site (15). Each modified constant region was paired with 36 sgRNA targeting sequences (3 sgRNAs targeting each of 10 essential genes and six non-targeting negative control sgRNAs). The cloning strategy (described below) allowed the mutation of most positions in the sgRNA constant region. A variety of modifications were made, including substitutions of all single bases not in the BlpI restriction site (which is used for cloning), double substitutions including all substitutions at base-paired position pairs not before or in the BlpI site, and a variety of triple, quadruple, and sextuple substitutions, including base-pair-preserving substitutions at adjacent base-pairs.
# The library was ordered and cloned in two parts. One part consisted of ˜100 modifications to the eight bases upstream of the BlpI restriction site. Constant region variants with mutations in this section were paired with each of the 36 targeting sequences, ordered as a pooled oligonucleotide library (Twist Biosciences), and cloned into pCRISPRia-v2 as described above. The second part consisted of ˜900 modifications to the 71 bases downstream of the BlpI restriction site. This part was cloned in two steps. First, all 36 targeting sequences were individually cloned into pCRISPRia-v2 as described above. The vectors were then pooled at an equimolar ratio and digested with BlpI (NEB) and XhoI (NEB). The modified constant region variants were ordered as a pooled oligonucleotide library (Twist Biosciences), PCR amplified with Phusion polymerase (NEB), digested with BlpI (NEB) and XhoI (NEB), and ligated into the digested vector pool, in a manner identical to previously published protocols and as described above, except for the different restriction enzymes.
# Screens with the compact mismatched sgRNA library and the constant region library were conducted largely as described above, with smaller modifications during the screening procedure and an updated sequencing library preparation protocol. Briefly, the libraries were transduced in duplicate into K562 CRISPRi (both libraries) or HeLa CRISPRi cells (compact mismatched sgRNA library) as described above. K562 replicates were maintained separately in 0.15 to 0.3 L of RPMI-1640 in 0.3 L spinner flasks for the course of the screen. HeLa replicates were maintained in sets of ten 15-cm plates. Cells were selected with puromycin as described above (K562: 1 day of 0.75 μg/mL and 1 day of 0.85 μg/mL; HeLa: 2 days of 0.8 μg/mL and 1 day of 1 μg/mL). The remainder of the screen was carried out at >1000× library coverage (K562 compact mismatched sgRNA library: >2000×; HeLa compact mismatched sgRNA library: >1000×; K562 constant region library: >2000×). Multiple samples were harvested after 4 to 8 days of growth. For the drug screen, 10 μM lovastatin (ApexBio) or an equivalent volume of DMSO (vehicle) was added to flasks at t=0, and 3 days later cells were pelleted and re-suspended in fresh medium. Lovastatin (12 μM) or DMSO was again added after 5 and 9 days of growth, with media exchanges 3 days after drug supplementation. Multiple samples were harvested after 4 to 8 days for the K562 and HeLa growth screens. […]
row,Molecule,Mean relative activity
1,B1,0.8874
2,B2,0.8861
3,B3,0.8858
4,B4,0.8672
5,B5,0.8694
6,B6,0.8745
7,B7,0.8826
8,B8,0.8871
9,B9,0.8638
10,B10,0.886
11,B11,0.8652
12,B12,0.8842
13,B13,0.874
14,B14,0.8653
15,B15,0.8788
16,B16,0.8793
17,B17,0.8852
18,B18,0.8857
19,B19,0.8617
20,B20,0.865
21,B21,0.8665
22,B22,0.885
23,B23,0.8637
24,B24,1.06
25,B25,0.8864
26,B26,0.8813
27,B27,0.8861
28,B28,0.8641
29,B29,0.8735
30,B30,1.058

# Reference: patent US20220259593A1, “CONTROL OF MAMMALIAN GENE DOSAGE USING CRISPR” (The Regents of the University of California, priority 2019, published 2022)
